Measured values from patent publication US20220306729A1 (published 2022).

Legend:
Human FcRn = assay: SPR
[1] = target: ZIKV envelope domain III (ZEDIII), polyhistidine-AviTag, made in HEK-293-6E cells; assay: ELISA

B1: GRLR/LS (antibody)
heavy: EVQLLESGGGLVQPGGSLRLTCATSGFTFRDYAMSWVRQAPGKGLEWVSSYSGIDDSTYYADSVKGRFTISRDNSKSTLSLHMNSLRAEDSALYFCAKDRGPRGVGELFDSWGQGTLVTVSSASTKGPSVFPLAPSSKSTSGGTAALGCLVKDYFPEPVTVSWNSGALTSGVHTFPAVLQSSGLYSLSSVVTVPSSSLGTQTYICNVNHKPSNTKVDKRVEPKSCDKTHTCPPCPAPELLRGPSVFLFPPKPKDTLMISRTPEVTCVVVDVSHEDPEVKFNWYVDGVEVHNAKTKPREEQYNSTYRVVSVLTVLHQDWLNGKEYKCKVSNKARPAPIEKTISKAKGQPREPQVYTLPPSREEMTKNQVSLTCLVKGFYPSDIAVEWESNGQPENNYKTTPPVLDSDGSFFLYSKLTVDKSRWQQGNVFSCSVLHEALHSHYTQKSLSLSPG
light: DIQMTQSPSTLSASVGDRVTITCRASQSISKWLAWYQQKPGKAPKLLIYTTSTLKSGVPSRFSGSGSGTEFTLTISSLQPDDFATYYCQHFYSVPWTFGQGTKVEIKRTVAAPSVFIFPPSDEQLKSGTASVVCLLNNFYPREAKVQWKVDNALQSGNSQESVTEQDSKDSTYSLSSTLTLSKADYEKHKVYACEVTHQGLSSPVTKSFNRGEC
Human FcRn
  Kd: 5.2 nM

B2: Z010 (MEX105_88) (antibody, V domains shown)
VH: EVQLLESGGGLVQPGGSLRLSCAASGFTFSNYAMAWVRQAPGKGLEWVSLIYSGDDSTYYADFVKGRFTISRHNSKNTLSLQMNSLRAEDTAIYYCVKDRGTGWSSIVHWGQGTLVTVSS
VL: DIQMTQSPSTLSASVGDRVTITCRASQTISNWLAWYQQKPGKAPKLLIYQASSLESGVPSRFSGSGSGTEFTLTISSLQPDDFATYYCQQYSTYWTFGQGTKVEIK
[1]
  EC50: > 0.4 µg/mL

B3: Z012 (antibody, V domains shown)
VH: QVQLVQSGAEVKKSGASVKVSCKASGYSFTTNYIHWVRQAPGQGPEWMGIINPRGGSTTYAQKFQGRVLMTSDTSTSTVYMELSSLRSEDRAVYYCARGKNHQTTVAVLSWYYGMDVWGQGTTVTVSS
VL: DIQMTQSPSSVSASVGDRVTITCRASQGISSWLAWYQQKPGKAPKLLISAASSLQSGVPSRFSGSGSGTDFTLTISNLQPEDFATYFCQQANSFPYTFGQGTKLEIK
[1]
  EC50: 0.2 µg/mL

B4: Z037 (antibody, V domains shown)
VH: QVQLQESGPGLVKPSETLSLTCSVSGYFISSGHYWGWIRQSPGKGLEWIASIYQSGSKFQTGNTYYNPSLESRVTISMDTSKNQFSLKLSSVTAADTAVYFCARDARSRSWDRTGFFGPWGQGILVTVSS
VL: EIVLTQSPGTLSLSPGERATLSCRASQSLSSSFLAWYQQKPGQSPRLLIYGTSSRDTGIPDRFSGSGSGTDFTLTISRLEPEDSAVYYCQQYGSSWGTFGQGTKLEIK
[1]
  EC50: > 0.4 µg/mL
